Test results taken from patent publication US20250163137A1.

Columns and labels:
[1] = molecular target: human FDP (fibrin-fibrinogen degradation products) (human) (UniProt P02671); assay: affinity test (RU read-out; instrument not named)
[2] = molecular target: human FDP (fibrin-fibrinogen degradation products) (human) (UniProt P02671); assay: kinetic analysis, 1:1 binding fit (RU read-out; instrument not named)
[3] = molecular target: human FDP (fibrin-fibrinogen degradation products) (human) (UniProt P02671); assay: comparison drawn from Tables 3 and 4 (kinetic analysis and affinity test)

Kd [1]: 157 nM | Kd [2]: 16.5 nM | koff [2]: 0.00225 s⁻¹ | kon [2]: 136000 M⁻¹ s⁻¹ | fold binding capacity against canine FDP [3]: 10 fold
B1: mAb 14G12-5 (antibody, V domains shown)
VH: EVQLVESGGGLVKPGGSLKLSCAASGFAFNAYDMSWVRQTPEKRLEWVAYISSSGDYTYYPDTVKGRFTVSRDNAKSTLYLHMGSLKSEDTAMYYCAVYYHYDEGLDYWGQGTALTVSS
VL: QIVLIQSPAIMSASPGEKVTMTCSASSSVNYMHWYQQKSGTSPKRWIYDTSKLASGVPARFSGSGSGTSYSLTISSMEAEDAATYYCQQWSSNPPTFGGGTKLEIKR
